Data on one molecule can be found in patent US20140086913A1 (Gilead, published 2014).

Assay [1] addresses T1, human DDR2 stably expressed on HEK293 cells (human, UniProt Q16832 22-855).
T1 construct: whole, on cells; also called hDDR2
T1 sequence (looked up): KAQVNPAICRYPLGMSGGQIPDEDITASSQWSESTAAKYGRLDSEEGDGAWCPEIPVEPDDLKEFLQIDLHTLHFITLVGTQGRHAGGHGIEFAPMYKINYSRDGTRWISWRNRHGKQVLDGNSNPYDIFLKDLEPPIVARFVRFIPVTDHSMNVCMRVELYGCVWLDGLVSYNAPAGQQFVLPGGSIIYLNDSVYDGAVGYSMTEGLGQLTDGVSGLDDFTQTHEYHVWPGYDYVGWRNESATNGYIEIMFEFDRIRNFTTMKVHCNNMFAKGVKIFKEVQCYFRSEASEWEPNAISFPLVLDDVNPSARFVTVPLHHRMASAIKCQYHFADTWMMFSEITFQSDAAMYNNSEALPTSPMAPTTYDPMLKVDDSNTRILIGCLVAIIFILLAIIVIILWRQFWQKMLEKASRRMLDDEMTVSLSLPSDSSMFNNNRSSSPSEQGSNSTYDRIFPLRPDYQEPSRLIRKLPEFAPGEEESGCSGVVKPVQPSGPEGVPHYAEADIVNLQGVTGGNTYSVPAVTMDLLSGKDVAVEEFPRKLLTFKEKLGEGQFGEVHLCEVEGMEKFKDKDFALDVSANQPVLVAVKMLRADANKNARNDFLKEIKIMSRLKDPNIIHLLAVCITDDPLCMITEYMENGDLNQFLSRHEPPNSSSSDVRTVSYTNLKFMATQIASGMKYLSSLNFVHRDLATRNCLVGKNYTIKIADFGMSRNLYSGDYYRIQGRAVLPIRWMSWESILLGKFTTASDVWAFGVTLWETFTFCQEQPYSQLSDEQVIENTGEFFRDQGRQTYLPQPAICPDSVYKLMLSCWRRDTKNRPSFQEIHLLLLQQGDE
The experiment in a line: flow cytometry, HEK293/hDDR2. The method, boiled down:
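Anti-DDR1 mAbs or isotype controls (2 μg per 1×10⁶ cells) were incubated with the stably transfected HEK293 cells at 4 °C for 1 hr, then detected with anti-IgG-PE at 4 °C for 1 hr. Binding was read as flow-cytometry MFI, with vector-only HEK293 background subtracted.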
In general terms: Flow cytometry measures light scatter and fluorescence of single cells or particles in a stream.

Assay [2] deals with T2, human ECD-DDR1-His protein (human, UniProt Q08345 21-416).
T2 construct: also called huDDR1-ECD-His; DDR1ECD-6Xhis; not shown: His tag
The experiment in a line: ELISA, coated antigen, apparent KD. The method, boiled down:
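Plates coated overnight at 4° C with 2 μg/mL purified tagged DDR1 ECD protein, BSA-blocked; serially diluted murine anti-DDR1 mAbs bound 1 hr at room temperature, detected with anti-mouse IgG-HRP and TMB (OD 450). Apparent KD taken as C-parameter of 4-parameter logistic fit of OD versus antibody concentration.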
A general note: An ELISA detects its analyte on a solid surface through an enzyme-linked reagent.

Assay [3] addresses T3, DDR1ECD-Fc (R&D Systems, Catalog #2396-DR) (human, UniProt Q08345 21-416).
T3 construct: range 21-416; construct as described for the bought immunogen; also called human ECD-DDR1-Fc; Fc-ECD-DR1; not shown: human IgG1, Pro100-Lys330
Briefly: ELISA, coated antigen, apparent KD; human ECD-DDR1-Fc coated on the plate, not the His-tagged or mouse antigen. How it is done: In this study, ELISA was used to determine the affinity of murine anti-DDR1 monoclonal antibodies to the extracellular domain (ECD) of either human or murine DDR1. A 96-well MaxiSorb ELISA plates (Nunc) were coated with 2 μg/mL of one of three purified recombinant tagged proteins: human ECD-DDR1-His protein, human ECD-DDR1-Fc, or mouse ECD-DDR1-Fc overnight at 4° C. The next day, the plates were blocked with 5% bovine serum albumin (BSA, Jackson Immunoresearch) prior to the addition of serially diluted anti-DDR1 monoclonal antibodies. Antibodies were incubated for 1 hr at room temperature. The binding of antibody to the antigen was detected by incubating samples with anti-mouse IgG-HRP (horse radish peroxidase) secondary detection antibody (Jackson Immunoresearch) for 1 hr. After a washing step, 3,3′,5,5″-tetramethylbenzidine (TMB) reagent was added for HRP to produce a colorimetric signal. The reaction was stopped by addition of 1M hydrochloric acid after 2 minutes and measured for absorbance (optical density, OD) at 450λ on a Molecular Devices plate reader. The OD values were plotted against antibody concentration and fitted using a using 4-parameter logistic equation in SoftMax software (Molecular Devices). The apparent affinity constant (KD) was taken from the C-parameter of the equation (y=(A−D)/(1+(x/C)̂B)+D). […]

The target of assay [4] is DDR1 endogenously expressed on human cancer cell lines (T47D, HCT-116, A431) (human) (UniProt Q08345). Briefly: flow cytometry, T47D cells.
In a further assay the target is T4, mouse ECD-DDR1-Fc (mouse; human, UniProt Q03146 22-414).
T4 construct: also called mouse DDR1-ECD; wild-type mouse DDR1-ECD; not shown: human IgG1 Fc of the vector pFuse-hIgG1-Fc1 (Invivogen)
T4 sequence: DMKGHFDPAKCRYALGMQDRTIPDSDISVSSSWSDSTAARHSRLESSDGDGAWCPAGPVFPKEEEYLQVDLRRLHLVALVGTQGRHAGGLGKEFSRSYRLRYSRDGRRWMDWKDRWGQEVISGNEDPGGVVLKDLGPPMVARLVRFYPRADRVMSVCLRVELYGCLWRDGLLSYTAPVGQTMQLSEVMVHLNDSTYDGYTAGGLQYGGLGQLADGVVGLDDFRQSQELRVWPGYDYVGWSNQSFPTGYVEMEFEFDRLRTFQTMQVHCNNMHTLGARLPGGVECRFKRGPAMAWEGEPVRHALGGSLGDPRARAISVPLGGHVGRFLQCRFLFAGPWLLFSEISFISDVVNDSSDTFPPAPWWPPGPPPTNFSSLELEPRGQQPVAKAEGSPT
The experiment in a line: ELISA, coated antigen. The protocol: In this study, ELISA was used to determine the affinity of murine anti-DDR1 monoclonal antibodies to the extracellular domain (ECD) of either human or murine DDR1. A 96-well MaxiSorb ELISA plates (Nunc) were coated with 2 μg/mL of one of three purified recombinant tagged proteins: human ECD-DDR1-His protein, human ECD-DDR1-Fc, or mouse ECD-DDR1-Fc overnight at 4° C. The next day, the plates were blocked with 5% bovine serum albumin (BSA, Jackson Immunoresearch) prior to the addition of serially diluted anti-DDR1 monoclonal antibodies. Antibodies were incubated for 1 hr at room temperature. The binding of antibody to the antigen was detected by incubating samples with anti-mouse IgG-HRP (horse radish peroxidase) secondary detection antibody (Jackson Immunoresearch) for 1 hr. After a washing step, 3,3′,5,5″-tetramethylbenzidine (TMB) reagent was added for HRP to produce a colorimetric signal. The reaction was stopped by addition of 1M hydrochloric acid after 2 minutes and measured for absorbance (optical density, OD) at 450λ on a Molecular Devices plate reader. The OD values were plotted against antibody concentration and fitted using a using 4-parameter logistic equation in SoftMax software (Molecular Devices). The apparent affinity constant (KD) was taken from the C-parameter of the equation (y=(A−D)/(1+(x/C)̂B)+D). The apparent affinity constants were summarized (in some cases shown as average values) in Table 10 below. Lower value indicates higher binding affinity of the antibody to the antigen.

The target in assay [5] is human DDR1 (isoform B) stably expressed on HEK293 cells (human) (UniProt Q08345). The experiment in a line: flow cytometry, HEK293/hDDR1.
Chain of human DDR1 (isoform B) stably expressed on HEK293 cells (human) (Q08345 19-913): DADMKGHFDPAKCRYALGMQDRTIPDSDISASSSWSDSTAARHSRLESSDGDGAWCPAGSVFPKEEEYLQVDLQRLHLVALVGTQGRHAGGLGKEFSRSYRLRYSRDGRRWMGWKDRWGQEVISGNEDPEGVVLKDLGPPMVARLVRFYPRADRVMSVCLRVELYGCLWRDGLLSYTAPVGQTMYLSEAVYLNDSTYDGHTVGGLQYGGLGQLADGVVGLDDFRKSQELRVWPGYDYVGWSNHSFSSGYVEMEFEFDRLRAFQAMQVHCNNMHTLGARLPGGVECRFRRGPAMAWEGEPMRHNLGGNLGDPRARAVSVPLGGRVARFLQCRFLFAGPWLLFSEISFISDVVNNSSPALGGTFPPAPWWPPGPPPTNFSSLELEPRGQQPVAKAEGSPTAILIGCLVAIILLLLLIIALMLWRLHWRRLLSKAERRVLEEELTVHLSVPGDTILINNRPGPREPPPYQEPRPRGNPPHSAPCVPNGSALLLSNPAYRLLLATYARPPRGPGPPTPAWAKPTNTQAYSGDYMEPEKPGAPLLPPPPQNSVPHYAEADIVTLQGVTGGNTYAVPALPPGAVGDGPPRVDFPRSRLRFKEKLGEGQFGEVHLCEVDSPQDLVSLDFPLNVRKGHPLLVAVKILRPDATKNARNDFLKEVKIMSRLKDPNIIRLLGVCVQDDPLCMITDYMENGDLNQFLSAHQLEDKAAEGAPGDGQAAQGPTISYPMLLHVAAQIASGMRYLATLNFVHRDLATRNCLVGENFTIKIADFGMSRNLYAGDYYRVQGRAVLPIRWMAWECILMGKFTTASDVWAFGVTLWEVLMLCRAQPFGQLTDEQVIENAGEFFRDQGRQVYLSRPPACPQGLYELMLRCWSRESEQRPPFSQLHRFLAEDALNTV
In assay [6] the target is DDR1 endogenously expressed on human cancer cell lines (T47D, HCT-116, A431) (human) (UniProt Q08345). Briefly: cell-based or functional assay.
Assay [7] has the same target. The experiment in a line: flow cytometry, HCT116 cells.
Assay [8] addresses DDR1 with a ProLink Tag (PK) in engineered U20S cells (DiscoveRx), Q08345. Briefly: cell-based or functional assay.

B1: AB2002 (antibody, V domains shown)
VH: EVNLVESGGGLVKPGGSLKLSCAASGFTFSTYAMSWVRQTPEKRLEWVASISSGGITHYPDSMKGRFTVSRDNARNILYLQMRSLRSEDTAKYYCARGRSSMIPDYWGQGTSVSVSS
VL: DIVMTQSHKFMSTSVGDRVSITCKASQDVGTAVAWYQQKPGQSPKLLIYWASTRHTGVPDRFTGSGSGTDFTLTISNVQSEDLADYFCQQYSTYPLTFGAGTKLELKR
notes: mouse hybridoma mAb
In the case of B1, the MFI in assay [1] is 170 MFI; in [4], 3590 MFI; in assay [5], 7240 MFI; in assay [7] it was 1010 MFI. The Kd in assay [2] was 0.233 nM; in assay [3] it was 0.268 nM. For the same molecule, in the assay with mouse ECD-DDR1-Fc, the binding result is given as “no binding”. The EC50, DDR1 phospho-specific ELISA (T47D) in assay [6] came out at 1.07 nM. This molecule came in with an EC50, cluster formation assay (A431 cells) in [6] of 9.72 nM. Besides, the Maximal inhibition, DDR1 phospho-specific ELISA (T47D) in [6] was 100%. In assay [6], the NPI of cluster formation at 66 nM (A431 cells) is 102%. In assay [8], this molecule yielded a Mean EC50, DDR1 Tyr513 phosphorylation assay (U20S) of 4.5 nM.
